One variant from IntAct's records for PubMed 20543138 can be followed below.

The labels stand for the following.
B1: General transcription factor 3C polypeptide 5 (Homo sapiens), Q9Y5Q8 (parent)
chain: MAAEAADLGLGAAVPVELRRERRMVCVEYPGVVRDVAKMLPTLGGEEGVSRIYADPTKRLELYFRPKDPYCHPVCANRFSTSSLLLRIRKRTRRQKGVLGTEAHSEVTFDMEILGIISTIYKFQGMSDFQYLAVHTEAGGKHTSMYDKVLMLRPEKEAFFHQELPLYIPPPIFSRLDAPVDYFYRPETQHREGYNNPPISGENLIGLSRARRPHNAIFVNFEDEEVPKQPLEAAAQTWRRVCTNPVDRKVEEELRKLFDIRPIWSRNAVKANISVHPDKLKVLLPFIAYYMITGPWRSLWIRFGYDPRKNPDAKIYQVLDFRIRCGMKHGYAPSDLPVKAKRSTYNYSLPITVKKTSSQLVTMHDLKQGLGPSGTSGARKPASSKYKLKDSVYIFREGALPPYRQMFYQLCDLNVEELQKIIHRNDGAENSCTERDGWCLPKTSDELRDTMSLMIRQTIRSKRPALFSSSAKADGGKEQLTYESGEDEEDEEEEEEEEEDFKPSDGSENEMETEILDYV

In the test the parent is B1. The note with it: with mtor_human MTOR.
Take F109I: the “effect of a mutation on the interaction” value is “disrupting interaction”.
